# Assay results reported in article PMC3380378.
# B1: 3-deoxy-D-manno-octulosonate cytidylyltransferase (KdsB, CMP-KDO synthetase) (Escherichia coli K-12) (protein)
# chain: MSFVVIIPARYASTRLPGKPLVDINGKPMIVHVLERARESGAERIIVATDHEDVARAVEAAGGEVCMTRADHQSGTERLAEVVEKCAFSDDTVIVNVQGDEPMIPATIIRQVADNLAQRQVGMATLAVPIHNAEEAFNPNAVKVVLDAEGYALYFSRATIPWDRDRFAEGLETVGDNFLRHLGIYGYRAGFIRRYVNWQPSPLEHIEMLEQLRVLWYGEKIHVAVAQEVPGTGVDTPEDLERVRAEMR
# Legend:
# Test in all cases: purified protein
# [1] = tested on: O=C(O)C(=O)C[C@@H](O)[C@@H](O)[C@H](O)[C@H](O)COP(=O)(O)O; settings: Mg2+; pH 10.0
# [2] = substrate: Nc1ccn([C@@H]2O[C@H](COP(=O)(O)OP(=O)(O)OP(=O)(O)O)[C@@H](O)[C@H]2O)c(=O)n1; type: biochemical, Escherichia coli; settings: Mg2+; pH 9.3
# [3] = substrate: O=C(O)C(=O)C[C@@H](O)[C@@H](O)[C@H](O)[C@H](O)CO; type: biochemical, Escherichia coli; settings: Mg2+; pH 9.3
Molecule,Km [1] [µM],Km [2] [µM],Km [3] [µM]
3-deoxy-D-manno-octulosonic acid 8-phosphate phosphatase (KdsC) (Escherichia coli K-12),370 ± 10,,
B1,,330 ± 40,280 ± 20
